Laboratory results: the DeepSol protein solubility set

Experiment: soluble on expression in E. coli; label from the status in PepcDB or PDB records

Which “soluble on expression in E. coli” value does the source give for “MGSDKIHHHHHHMMKMQVVIASGKGGVGKSSITASLLYLLKDEYKLIAVDADAEAPNLGLLLGVTEWEIEREHIGAKIARINPESCIRCGLCQMRCPYECIYVDEEGNYVVNELTCEGCNVCGLVCPVPGTITLEEVRSGIIRKATTKYGFPIISAQLDVGKPESGKLVTEEKEWASKIMKEEGLEHMIVDSAAGIGCQVIASVGGADVAILIAEPTPASLSDVQRVYKVVQHFREPAYLIINKADINPGFTKLREWAESEGIPILGEVPYDSSIPRSMSMLKPFVEAFPDSKASEAIRGIAERIKEEILKG” here?
The value was “not soluble”.

For “MTQCFKCKQAIGTVVSRDGPTKLYCPDCFLAYCAGAVRENAFQQCRVPSDTPLAVAVSGGPNSMMLLRELGQLRYKTRDQIRRQHLTPQRQAPAQGGKSRSTPTSSPPARSTPLASSLILLPFHLCEDELVLPLPPPLSSSTSSPSSLHAISGRHEAVNRVRSAMEEQFATLRKYVQQQPPRWVYHGEVPCGHKRTKKQQNNPTAAERTGAAHAGGANIATPELSHRGGGSTSAPSPQPRPQRQAGESGETAAATARLFDDSEIRLFRYSDLLSGTYLSELRYALHVSRLSLSDREALYARVRQQTLCRAAQRVCQEHRQRNAAAAAATAVVVGGVAHEEGIREDAAQCSEEQAPFDEHVSLEGTNSKTRSHLLLGSNAVRCATAALEALVTGAGGEGVVHGAGFRGFTHEVVCLRPLRAMLPKETIMYTRLCGIAGSYTPALCTGTATRSVHRTLEQFVLTMMTSYRTMIFNVLNTVQRLEVHPAAMQELLRGIDDASACHTHVHGEGLAEAGSTQSAGKTTRKALPARTAQLNRTDMCLAAPLHVRRDLGGVNVNEADIDSVIAMCCVCGCPASITSCYRGQNANTAVRQLEMLALNTTSAMTPRTSGASPSTVADAASASEASPTTTGCFLCYACQGLADAWPPSVFGRDSTTENDEQPGNDSTTAAGAAARHGAIASTAALFRLCALFY”, which “soluble on expression in E. coli” value is on record?
Its value is “not soluble”.

For “MIEENLKQKIHDKFVAAKKNGHLKVTHAESKKLKDPQTTTQYWVTFAPSLALKPDANKNSDSKAEDPFANPDEELVVTEDLNGDGEYKLLLNKFPVVPEHSLLVTSEFKDQRSALTPSDLMTAYNVLCSLQGDKDDDVTCERYLVFYNCGPHSGSSQDHKHLQIMQMPEKFIPFQDVLCNGKDHFLPTFNAEPLQDDKVSFAHFVLPLPESSDQVDEDLLAMCYVSLMQRALTFFQDWTNESPELTKSYNVLLTKKWICVVPRSHAKSGPPLMLNINSTGYCGMILVKDREKLENLTEDPHLVDKSLLQCGFPNTAGQKPTEYHY”, which “soluble on expression in E. coli” value is on record?
Its value is “not soluble”.

For “MSLTLPSEKPATDVAAQCFLNALIRETTDWKLTEYPPDELIIPLDEQKSLHFRVAYFSPTQHHRFAFPARLVTASGSYPVDFTTLSRLIIDKLRHQLFLPVPLCETFHQRVLESHAHTQQAIDARHDWTALREKALNFGEAEQALLTGHAFHPAPKSHEPFNRREAERYLPDMAPHFPLRWFSVDKTQIAGESLHLNLQQRLTRFAAENAPQLLNELSDNQWLFPLHPWQGEYLLQQGWCQALVAKGLIKDLGEAGTSWLPTTSSRSLYCATSRDMIKFSLSVRLTNSIRTLSVKEVKRGMRLARLAQTDGWQMLQVRFPTFRVMQEDGWAGLLDLNGNIMQESLFALRENLLVDQPKSQTNVLVSLTQAAPDGGDSLLVSAVKRLSDRLGITVQQAAHAWVDAYCQQVLKPLFTAEADYGLVLLAHQQNILVQMLGDLPVGFIYRDCQGSAFMPHATDWLDSIGEAQAENIFTHEQLLRYFPYYLLVNSTFAVTAALGAAGLDSESNLMARVRASLAEVRDQVTHKTCLNYVLESPYWNVKGNFFCYLNDHNENTIVDPSVIYFDFANPLQAQEGHHHHHH”, which “soluble on expression in E. coli” value is on record?
Its value is “soluble”.

With “MRLIIVSGRSGSGKSTALNVLEDNGFYCIDNLPASLLPDLAQRALLHTELLQPQVAVSIDARNLPSQLQRFPELLQEVRDNHINCDVLYLDADDETLLKRFSETRRRHPLTTDTRSLAEAIGDESQLLGPIADLADLKLDTTSLNLYQLRDTIKLRLLNKPEPGTAFLVESFGFKRGMPVDADLVFDVRCLPNPYWKPELRDHSGLEPEVREYLAAQPDVEEMYQDIVGYLNKWLPRFAASNRSYVTVAIGCTGGHHRSVYLAERIGAALRDSLKNVQIRHRDLSS” as the sequence, how does the “soluble on expression in E. coli” value read?
The value was “not soluble”.

With “MFQLLAVCPMGLEAVVAREIQELGYETNVENGRIFFEGDASAIVKANLWLRTADRIKIVVGRFNATTFDELFEQTKALPWESIIDKEGNFPVQGRSVKSTLHSVPDCQAITKKAIVERLRRAYNEKGWLNESGAKYPVEVAILKDNVLLTIDTSGSGLNRRGYRLAQGEAPIKETLAASLIRLANWKGDTPLIDPFCGSGTIAIEACLIAQNIAPGFNREFVSEQWNIMPANIYDDYRDEADKMADYDKEIEVYASDIDPEMVEIAKRNAEEVGLSDIIKFSVKDVNTLTIDTEEPVALIGNPPYGERIGDREEVEEMYRYIGKLMKQHPFLSTYILTSNKEFEYLVNRKATKRRKLFNGYIECTYYQYWGKKTERKTIEN” as the sequence, how does the “soluble on expression in E. coli” value read?
The value was “not soluble”.

Which “soluble on expression in E. coli” value does the source give for “MHTKPPIERIMYIELRTSLELFRSDLVDLEALANAAKEALEQLPYIPKEPCGKGEDDPLSGPESALRTGRLCGLVCCTATAAEGALSTCSKLIDWAYENEPEGVDDAVLVDDIDDDDDDDDDGSNGANGGGGANGSGNGSNGSGNGSPPDGGVEGAAPSLDADELAQARPSRGGIALDLAQCATTTDRPVA” here?
Its value is “not soluble”.

With “MAQSETVERILDAAEQLFAEKGFAETSLRLITSKAGVNLAAVNYHFGSKKALIQAVFSRFLGPFCASLEKELDRRQAKPEAQHATLEDLLHLLVSQAMAVKPRSGNDLSIFMRLLGLAFSQSQGHLRKYLEEVYGKVFRRYMLLVNEAAPKLPPIELFWRVHFMLGAAAFSMSGIKALRAMAETDFGVNTSTEQVMHLMVPFFAAGMRAESGIDDPLLAGAQLRPRNKTPAKA” as the sequence, how does the “soluble on expression in E. coli” value read?
The value was “soluble”.

With “MSLADLTSLSIEHLRSPRLYTHRLILRPWLVQDRARFAELNADPLVMEFFPSCLDRAQSDALLRRIDAHFAEHGFGWWALQVKGGDPFIGYVGLEVVDFDAPFVPAVAIGWRLAAEHWAEGFAHEAAEAALSYAFDTLGLDQVVAFTVPANENSLGLMERLGMHRDPTDDFEHPDLPPGHRLRHHVLYRLTREDWLRREGGSHHHHHH” as the sequence, how does the “soluble on expression in E. coli” value read?
Its value is “soluble”.

For “GTAGKVIKCKAAVLWEQKQPFSIEEIEVAPPKTKEVRIKILATGICRTDDHVIKGTMVSKFPVIVGHEATGIVESIGEGVTTVKPGDKVIPLFLPQCRECNACRNPDGNLCIRSDITGRGVLADGTTRFTCKGKPVHHFMNTSTFTEYTVVDESSVAKIDDAAPPEKVCLIGCGFSTGYGAAVKTGKVKPGSTCVVFGLGGVGLSVIMGCKSAGASRIIGIDLNKDKFEKAMAVGATECISPKDSTKPISEVLSEMTGNNVGYTFEVIGHLETMIDALASCHMNYGTSVVVGVPPSAKMLTYDPMLLFTGRTWKGCVFGGLKSRDDVPKLVTEFLAKKFDLDQLITHVLPFKKISEGFELLNSGQSIRTVLTF”, which “soluble on expression in E. coli” value is on record?
Its value is “soluble”.

Which “soluble on expression in E. coli” value does the source give for “MKLSATIAIILLNWNGWRDTVDCVESCRKLDYPNFRIVIVDNGSTDGSEAILRERFPDVELIQTGANLGFAGGNNAGIRHALVRGADYVWLLNNDTVVEPGALGALVRVAESDPRVGMVGSKIVYFDDPWLLWFAGAVIDPERPHRPFHRGLHERDTGQYDRVAETGYVTGCSLLARREMMAEVGMLDDDLFLYFEDADWSARAARAGWKLLYVPDSVVRHKESVSSGGAASPRLVYYTARNRLYFVRRNFPAKLAAALCYDLFEHVLVNVKKGRFPLAVAGCRGIRDFLAGKIGPMPLEHHHHHH” here?
Its value is “soluble”.

With “GMAINIIEYNRSYKEELIEFILSIQKNEFNIKIDRDDQPDLENIEHNYLNSGGQFWLAINNHQNIVGTIGLIRLDNNMSALKKMFVDKGYRNLKIGKKLLDKVIMTCKEQNIDGIYLGTIDKFISAQYFYSNNGFREIKRGDLPSSFPKLDVDNRFYYRNLKD” as the sequence, how does the “soluble on expression in E. coli” value read?
Its value is “soluble”.
